Key:
Test in all cases: purified protein
purified protein [1] = substrate: Nc1nc2nc[nH]c2c(=O)[nH]1; assay type: biochemical, Saccharomyces cerevisiae; details: 20 mM HEPES pH 7.5, 100 mM NaCl, 37 °C, zinc enzyme
purified protein [2] = substrate: Nc1nc2nc[nH]c2c(=O)[nH]1; assay type: biochemical, Escherichia coli; details: 20 mM HEPES pH 7.5, 100 mM NaCl, 37 °C
purified protein [3] = substrate: Nc1nc2nn[nH]c2c(=O)[nH]1; assay type: biochemical, Escherichia coli; details: 20 mM HEPES pH 7.5, 100 mM NaCl, 37 °C, zinc enzyme
purified protein [4] = substrate: Cn1c(N)nc2nc[nH]c2c1=O; assay type: biochemical, Escherichia coli; details: 20 mM HEPES pH 7.5, 100 mM NaCl, 37 °C, zinc enzyme
purified protein [5] = substrate: Nc1nc(N)nc(O)n1; assay type: biochemical, Escherichia coli; details: 20 mM HEPES pH 7.5, 100 mM NaCl, 37 °C, zinc enzyme

B1: Gud1 (Saccharomyces cerevisiae S288C) (protein)
chain: MTKSDLLFDKFNDKHGKFLVFFGTFVDTPKLGELRIREKTSVGVLNGIIRFVNRNSLDPVKDCLDHDSSLSPEDVTVVDIIGKDKTRNNSFYFPGFVDTHNHVSQYPNVGVFGNSTLLDWLEKYTFPIEAALANENIAREVYNKVISKTLSHGTTTVAYYNTIDLKSTKLLAQLSSLLGQRVLVGKVCMDTNGPEYYIEDTKTSFESTVKVVKYIRETICDPLVNPIVTPRFAPSCSRELMQQLSKLVKDENIHVQTHLSENKEEIQWVQDLFPECESYTDVYDKYGLLTEKTVLAHCIHLTDAEARVIKQRRCGISHCPISNSSLTSGECRVRWLLDQGIKVGLGTDVSAGHSCSILTTGRQAFAVSRHLAMRETDHAKLSVSECLFLATMGGAQVLRMDETLGTFDVGKQFDAQMIDTNAPGSNVDMFHWQLKEKDQMQEQEQEQGQDPYKNPPLLTNEDIIAKWFFNGDDRNTTKVWVAGQQVYQI
B1 showed a Km (purified protein [1]) of 61 ± 8 µM.

B2: EcGuaD (Escherichia coli K-12) (protein)
chain: MMSGEHTLKAVRGSFIDVTRTIDNPEEIASALRFIEDGLLLIKQGKVEWFGEWENGKHQIPDTIRVRDYRGKLIVPGFVDTHIHYPQSEMVGAYGEQLLEWLNKHTFPTERRYEDLEYAREMSAFFIKQLLRNGTTTALVFGTVHPQSVDALFEAASHINMRMIAGKVMMDRNAPDYLLDTAESSYHQSKELIERWHKNGRLLYAITPRFAPTSSPEQMAMAQRLKEEYPDTWVHTHLCENKDEIAWVKSLYPDHDGYLDVYHQYGLTGKNCVFAHCVHLEEKEWDRLSETKSSIAFCPTSNLYLGSGLFNLKKAWQKKVKVGMGTDIGAGTTFNMLQTLNEAYKVLQLQGYRLSAYEAFYLATLGGAKSLGLDDLIGNFLPGKEADFVVMEPTATPLQQLRYDNSVSLVDKLFVMMTLGDDRSIYRTYVDGRLVYERN
Protein B2 has a Km (purified protein [2]; zinc enzyme) of 210 ± 40 µM, a Km (purified protein [3]) of 1000 ± 300 µM and a Km (purified protein [4]) of 930 ± 260 µM. The Km (purified protein [5]) was 1200 ± 200 µM.

B3: EcGuaD (Escherichia coli K-12; F210A) (protein)
chain: MMSGEHTLKAVRGSFIDVTRTIDNPEEIASALRFIEDGLLLIKQGKVEWFGEWENGKHQIPDTIRVRDYRGKLIVPGFVDTHIHYPQSEMVGAYGEQLLEWLNKHTFPTERRYEDLEYAREMSAFFIKQLLRNGTTTALVFGTVHPQSVDALFEAASHINMRMIAGKVMMDRNAPDYLLDTAESSYHQSKELIERWHKNGRLLYAITPRAAPTSSPEQMAMAQRLKEEYPDTWVHTHLCENKDEIAWVKSLYPDHDGYLDVYHQYGLTGKNCVFAHCVHLEEKEWDRLSETKSSIAFCPTSNLYLGSGLFNLKKAWQKKVKVGMGTDIGAGTTFNMLQTLNEAYKVLQLQGYRLSAYEAFYLATLGGAKSLGLDDLIGNFLPGKEADFVVMEPTATPLQQLRYDNSVSLVDKLFVMMTLGDDRSIYRTYVDGRLVYERN
For B3, the Km (purified protein [2]) was 210 ± 60 µM.

B4: EcGuaD (Escherichia coli K-12; W101H) (protein)
chain: MMSGEHTLKAVRGSFIDVTRTIDNPEEIASALRFIEDGLLLIKQGKVEWFGEWENGKHQIPDTIRVRDYRGKLIVPGFVDTHIHYPQSEMVGAYGEQLLEHLNKHTFPTERRYEDLEYAREMSAFFIKQLLRNGTTTALVFGTVHPQSVDALFEAASHINMRMIAGKVMMDRNAPDYLLDTAESSYHQSKELIERWHKNGRLLYAITPRFAPTSSPEQMAMAQRLKEEYPDTWVHTHLCENKDEIAWVKSLYPDHDGYLDVYHQYGLTGKNCVFAHCVHLEEKEWDRLSETKSSIAFCPTSNLYLGSGLFNLKKAWQKKVKVGMGTDIGAGTTFNMLQTLNEAYKVLQLQGYRLSAYEAFYLATLGGAKSLGLDDLIGNFLPGKEADFVVMEPTATPLQQLRYDNSVSLVDKLFVMMTLGDDRSIYRTYVDGRLVYERN
For B4, the Km (purified protein [2]) was 80 ± 10 µM.

B5: EcGuaD (Escherichia coli K-12; A386S) (protein)
chain: MMSGEHTLKAVRGSFIDVTRTIDNPEEIASALRFIEDGLLLIKQGKVEWFGEWENGKHQIPDTIRVRDYRGKLIVPGFVDTHIHYPQSEMVGAYGEQLLEWLNKHTFPTERRYEDLEYAREMSAFFIKQLLRNGTTTALVFGTVHPQSVDALFEAASHINMRMIAGKVMMDRNAPDYLLDTAESSYHQSKELIERWHKNGRLLYAITPRFAPTSSPEQMAMAQRLKEEYPDTWVHTHLCENKDEIAWVKSLYPDHDGYLDVYHQYGLTGKNCVFAHCVHLEEKEWDRLSETKSSIAFCPTSNLYLGSGLFNLKKAWQKKVKVGMGTDIGAGTTFNMLQTLNEAYKVLQLQGYRLSAYEAFYLATLGGAKSLGLDDLIGNFLPGKESDFVVMEPTATPLQQLRYDNSVSLVDKLFVMMTLGDDRSIYRTYVDGRLVYERN
For B5, the Km (purified protein [2]) was 140 ± 30 µM.

Reference: article PMC6677139
